Measured values from paper PMC10844294.

Biological target: B.1.1.529 (BA.1) S1 + S2 trimer-His Recombinant Protein (SARS-CoV-2) (UniProt P0DTC2)
Experiment: cryo-EM structure

For “B.1.1.529 (BA.1) S1 + S2 trimer-His Recombinant Protein (from UniProt P0DTC2 324-533) (natural protein)”, the stoichiometry N was 3.
